Measured values reported in paper PMC7378068.

Biological target: T1, IL-1R1 (mouse IL-1R complex on HEK-Blue-IL1R cells) (mouse) (UniProt P13504)
T1 sequence: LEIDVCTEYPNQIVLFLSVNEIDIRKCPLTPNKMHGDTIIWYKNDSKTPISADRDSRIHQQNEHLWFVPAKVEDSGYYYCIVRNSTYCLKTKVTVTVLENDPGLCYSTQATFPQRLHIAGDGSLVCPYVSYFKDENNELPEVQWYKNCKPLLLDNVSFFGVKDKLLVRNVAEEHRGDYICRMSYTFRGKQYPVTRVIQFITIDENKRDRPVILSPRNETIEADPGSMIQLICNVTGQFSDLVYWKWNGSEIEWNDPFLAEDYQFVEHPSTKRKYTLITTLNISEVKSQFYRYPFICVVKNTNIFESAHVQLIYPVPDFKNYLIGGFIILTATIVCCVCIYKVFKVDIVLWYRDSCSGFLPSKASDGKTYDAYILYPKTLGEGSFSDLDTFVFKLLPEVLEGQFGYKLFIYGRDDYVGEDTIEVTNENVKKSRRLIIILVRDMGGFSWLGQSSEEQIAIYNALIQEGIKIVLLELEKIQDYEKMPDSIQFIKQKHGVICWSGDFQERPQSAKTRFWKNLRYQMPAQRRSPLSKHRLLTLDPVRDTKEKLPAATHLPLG

Substance: human IL-1β mutant Q148G (from UniProt P01584 117-269) (ligand)
- NF-κB-driven expression of a luciferase reporter in HEK-Blue-IL1R cells; fold reduction in activity compared with WT IL-1β: 168 fold
